# Results published in the PETadex activity labels.
# B1: unnamed (protein)
# chain: MPKSDRSTPQPARSQHGGFAKLSLGLTALLMSVLVHAQSNPFERGPEPTVASLEAAAGPYAVQTTQVGKGNSNDYARGTVYYPVANDGQFALIAIVPGYTERQAGVSWWGSRLASHGFVVVTVDTNAPGEFPPSRARALKDALATVVKLSQTSSSPFFGKIDASRQGIMGHSMGGGATLELARSNSKLKAAIPFAPWNSNSKVYTRVKVPTLIISCQRDAVAPVNSHANKFYDSFSATLDKALLEVTGGDHYCASTSASAANKAVVGKYGVAWMKRFLDNDTRYSQFLCGAPHQADLAGPIISSYKDSCPY
# B2: unnamed (protein)
# chain: MSSDKRLLFTLLHRTLLACALTFSAALPACGEEDPKEVTDSSSDDDDETPVDGDTTGDDDPEPMTMKDAGKSSVKDAGKPPPTPAVDAGSTAPKDKDSGTVGGIDAGPAKDAGTVVTPPTTAGDALVRGDAPTEKSASAKGPYAVKTYTSGYPDLPGYLDSTIHYPEGAQPPFAAVVIVPGFVSAQSSIQAWGPFFASHGIVTMTIGTNTPVDQPPMREAALLDALKTVKSENTREGSPLKDKLDLSRLAGMGWSMGGGGALLLGEHNPELKAVIALCPWNPGYSYAKIKMPTLFLAAQADTLAGGQSQGFYSSIPNSVPKILYEIAGADHWHNNDPANLQGAVGRYGLAWLKVFLEGDERYRDLLKVKGPSSSDWQSNVQ
# B3: unnamed (protein)
# chain: MERGNHRAKWVIGLGLLALAAAAQSQTNPFQKGPDPTSTLLNATSGPFSVATSSVSSLAAQGFGGGTIYYPSTTGTYAVLAISPGFTATQSSIAWLGRRIATHGFVVITIDTNSTLDQPPSRATQLIAALRHVTDLSNATVRSRVDASRRGVAGHSMGGGGSLIAARDNPSLKAAVPLTAWSTTKVFSTVQVPTLVVGAENDTIASVSSHSIPFYTSLSSSLDKAYAELNNASHLAPNTTNTPIGRYSVAWVKRFMDNDTRYTPFLCGAPHQSYATSAVFSDYRSTCPY
# B4: unnamed (protein)
# chain: MRPPCCSAGATWLSRSRSRAAVVLTTLVATVSALLIVSAAPALAAPVPAPTTASLEATNGPLATASYTVPNPSGYGSGTITYPTGSGSYPGVVLMPGYQGTQQNLRWLAPRLASWGFVVVNVGTRTLTDDPESRGDQISAAGTQLLAFSNAVGNPITGKVNGTLGAAGHSMGGGGTMVALRDDARFRAGVPLAPYYQNGNFSSVAKPTFSLTCRSDVAAPGNTYALPWYNSMTRAEKLYVEVPGDHLCPMTGYGNKAKQGKWIVSFFSRWLRGDTRFSPFLCGAEREADRNNAALVTRWMDTCPY
# B5: unnamed (protein)
# chain: MRPCSRSTNTTPPLRTRSRPMTALIALATTIGLALTLLTATAAPAAAADLLSQGKPVTSSSTENTSTPASAAVDGNTGTRWSSTFSDPQWLTVDLGATATISQVVLRWEAAYARSFRIQTSDNGTSWTTIHSTTTSTGGAQTLDVNGSGRYIRLYGTQRGTAYGYSLWEFQVYGSGEGTPPGSGIPDPTTVSLEATNGPLTTATYTVPSPSGYGSGTVTYPTASGSYPGIVLMPGYQGTQQNLQWLAPRLASWGFVVINVGTNTLTDDPESRGRQITAAGTQLLALGDAPGNPLSGKLNGTLGATGHSMGGGGVMAALRDDSRFRAGVPTAPYHPNGNFSGVTEPTFFLTCQSDAVAHGDRYAVPWYTSMSQAEKLYIEVPGDHLCPMTGYGNKAKQGKWMVSFFSLWLRADTRFSPFLCGPARDADKNDTSLVTRWMDTCQF
# B6: unnamed (protein)
# chain: MPKYPFYSQWIVAIGALVFSINASAVTLDEVAATNKLTIKEQSTKIVSTPIASAVAITSPVSTPAVPSNCIADSIITAANLSDTRDKGPFSVAKKAVPRQLANGFGGGTIYYPTNAGGCGLLGGIAVIPGYVSYESSIKWWGPRLASWGFVVITIDTNSIYDDPDSRAAQLSAALDHMLRDNTVGAQIDSTRLGAIGWSMGGGGALQLATKRQTVRAIIPQTPYHDKDYGEMNTPALFITCQNDRIASNKKYSSRFYDKATGAKMKIEIKNGSHFCPSYRFNEILLSKPGIAWMHRYINGDTRFDQFLCSNDNYGNNPRISAYDYKLS
# B7: unnamed (protein)
# chain: MIRFKTGALTNTISLCLVVALGCGGGETPETSGPPPATQTNPTAQAGATATKPTGTAGAAAPTNTGRPMMTTPPTTTTPTMTTPATAGSAAPAAGSGGTPAATGAGGAPAAEAGSGAAGSAATAGSGAEDEAAAGKGGTEATGDKNHWIRGDDPPADLSGARPGPYKVERYTDGYRNGPAYADSTINYPVDAEPPFALVVVVPGFVSPQSSIASWGPFLASHGIVTMTIGTNLPTDLPETRKDALLDAMQSLKEENTREGSPLKGKLDTSYTATMGWSMGGGGTLLVANENPELKATISLCGWNPGYPYSKIKAPALMFASLGDPLAGGQSQGFYRSIPDETPKMLIEVGAGDHFVANNPASTSGVIGRYGLAWLKVYLEGDERYRKFLLEKPAVP
# B8: unnamed (protein)
# chain: MLGVMGWSMGGGGTLITVDDHPELKAAITLCAWNPGQTYRQNQVPTLLFAGTADVLAGGQSQGFYTSIPETTPKMLFEVQGADHFFANTPEGASGQCGKYGTAWLKVFLVGDECYRPFLLEPPSGTSDFRTNLE
# B9: unnamed (protein)
# chain: MRTAKDFARGNPLARLCILLALAVFPALSHAQTVIFQEPFNVGIGSFTADGTVNGGGTGASMHGRIQGYSTITSPAINTTGFTNLQLAWTQMCLNSDAGEACQLWYSVNNITWDLVYSTPFAPFNSPASIALPAAAAGQSQLRLRFVRLANSFEEVYDVDNISLTGTAGGGGTTSGSTSGGTSGGGGTPCQNGPAPSATSVQGDGPFTVGTYVVPNPSGYKAGTIYYPTNTVSGACTKFAGIVTMPGYQGTQNNLSWLGPRLASNGFVVINVDTNTLSDSPDQRGAEILSALNQLVSLSNASGNPISGKVDSAKLGAMGHSMGGGGTLVAARNAMIKAAIPMAPYHNTTTNFPDVHAPTLVVTCQGDPSAPAATYGRPMYNSLTTEKAYLELTTTDGHLCVMTGYGNKAVQSRYMTSWMKRWLDGDTRYTQFLCGTTSGSNGVTTWADTCPY
# B10: unnamed (protein)
# chain: MEISNTRQLAVRSRARSRAETGGRKWTIGLGLLLLAAVAHAQTNPYAKGPDPTSSLLNATRGPFSITSTSVSRFVSGFGGGTIYYPTTSGSYAAIAISPGFTATQSSIAWLGQRIASHGFVAITINTNSVYDQPASRATQLMAALRYLTNSSTSAVRSRVDANRLGVAGHSMGGGGALIAARDNPSLKASVPLTAWSTSKNFSTVQVPTLVVGAENDSVAPVSSHSIPFYTSLSSFLEKAYAELNNASHFAPNSTNTPIGRYSVAWVKRFMDNDTRYSPFLCGAPHQSYATSTVFSEYRSTCPY
# B11: unnamed (protein)
# chain: MKTTKGTKIALIAFTLSFSLSAFSGGGGGGNNNGGLPAPNTCTSNCGFETGPNPNLNFVRASRGPLPTRTTVVSRSVDGFGGGTIYYPSNASEEMAAIAVSPGFTATQSSIDWWGPILASHGFVVITIDTNSRFDQPISRGRQLDSALSYLISENSRRNSPISGLVDETRLATMGHSMGGGGALRSASRNRLSAAMPMAPFNVGNNDFNQIRVPTMIMACENDVVAPVGIHARPFYNRIPGSTDKVLLEFNNGPHNCANGESSGNRPLLSTYGVSWMKRFLDKDRRYNQFLCGPNHVANNGISDFRSTCTF
# B12: unnamed (protein)
# chain: MKKNIFKKACLSALVIAFSLSAHSGGGGGDDGGSDQLPLPDSCNSNCGYEVGPNPTLSALEATQGPLSVSASTVSSSVDGFGGGTIYYPNNASQELATIAVAPGFTNTQSAIQWWGPLLASHGYVVITIDTNGRFDNPGSRSLQLDAALSYLISEGNRSSSDISGLVDENRLATMGFSMGGGGTLISASRNRLSAAVPMAPWNTGGNDFDAIGVPTLIFACEDDSTARINSHASPFYNSIPSSTDKAYMEINNGPHNCANGNNGNGNDALLSTYGVSWMKRFLDKDSRYDQFLCGPNHVANSKINEYRDTCNY
# B13: unnamed (protein)
# chain: MKLTFVPLAITVVATLTCTSVVAKINLVESQVIQISELKKPAESLIDKSAQTAALPIPPSIATCIDDSAISADNLSQAKDNGPFAISSKDIPRQSAIGFGGGTIHYPINASGCGLLAAIAVVPGFVSYESSIKWLGPRLAAWGFVVITINTDSIYDNPDSRARQLSAALDTIISDDNVGSIVDPNRLGAIGWSMGGGGALKLATVRDEVRAIVPLAPYHDKDYGEVSTPTLVIACQFDRIARNKKYGSMFYDKAIGPKMKVELNNASHFCPSYRFNEILLSKPIIAWMQRYINEDERFDKLLCANETYSENPRFSSYDYANCS
# B14: unnamed (protein)
# chain: MTTIIAKLAIAASAAVLATAAFAQQQGPEQTAAQLEAGKGPFTVATAKIATPSGYGGGTVYYPTNASGKVGLIVVAPGFTETQSAMNMWGPILASNGFAVINIDTKSTLDQPPARATQMMAALKQVSDLSKTTASPYYNKIDVTRQAVMGHSMGGGGTLVAATANPALKAAIPAAPWSLATKNFPTLAVPTMIFACQSDVIAPVSGHADRFWASFNKQLPSAFAEYAGAGHQCPTSQGGADRKLVFSKLGIAWFKRFVDGDTRYTQFITNDSRLSRFLTNGSF
# B15: unnamed (protein)
# chain: MTPTLCRPLAAVLTSAAFAALTAVSASALAQTPQEPTEASLNATAGPFSVATESVRAPRGFGGGTIYYPTAAGRYGVVAISPGFTATQSSIAWLGRRMASHGLVVITMNTNSTLDQPASRANQLMAALNHVVSASGAAVQSRADGTRRAVAGHSMGGGGALIAARDNATLRAALPLTPWNTTTDFSGVRVPTLIVGADGDGVASVTRHARPFYASLPNATAKAYGELNSASHFTPNSTNTPIGRYGVTWMKRFVDADTRYSPFLCGAAHLAYATPAVFDRYQNNCPY
# Substrate: BHET
# Details: 120 h
row,Protein,plate clearing
1,B1,clears the plate (z > 3 vs empty vector)
2,B2,not clears the plate
3,B3,not clears the plate
4,B4,not clears the plate
5,B5,not clears the plate
6,B6,not clears the plate
7,B7,not clears the plate
8,B8,not clears the plate
9,B9,not clears the plate
10,B10,not clears the plate
11,B11,not clears the plate
12,B12,not clears the plate
13,B13,not clears the plate
14,B14,not clears the plate
15,B15,not clears the plate
